Assay results from patent CN115819582A (HEFEI TIANGANG IMMUNOLOGY PHARMACEUTICAL CO LTD, dated 2023).

B1: 鼠单抗mAb003 (antibody, mouse IgG1, kappa, V domains shown)
VH: EVQLQQSGPELVKPGASVRITCKASGYTFTDYNIHWVKQSHGKSLEWIGYIYPYNGGSGYNQKFKSQATLTVDTSSTTAYMEIRSLTSEDSAVYYCAREEVRRDEALDFWGQGTSVTVSS
VL: DIQMTQSPASLSVSVGETVNITCRVSENIYSNLAWYQQKQGKSPQLLVYGASNLPDGVPSRFSGSGSGTQYSLKINTLQSEDFGTYYCQHFWGTPYTFGGGTKLEIKR
notes: Mouse monoclonal antibody from a hybridoma; also called PVRIG抗体
B2: 鼠单抗mAb001 (antibody, mouse IgG1, kappa, V domains shown)
VH: EVQLQQSGPDLVKTGASVKISCKAVGYSFTGYNVHWVKQSHDKSLEWIGYIHFYTGATDYNQKFKDKATFTVDASSNTAYMQFNSLTSEDSAVYYCAIMRWAVDYWGQGTSVTVSS
VL: QIVLTQSPTIMSASPGETVTMTCSVSSSVNYIYWYQQKSGASPKRWIYDTSKLASGVPSRFSGSGSGASYSLTISNMEAEDAATYYCQQWSSNPYTFGGGTKLEIKR
notes: as for B1
B3: 鼠单抗mAb002 (antibody, mouse IgG1, kappa, V domains shown)
VH: EVQLQQSGPELVKPGASMKISCKASGYSFTGYTMNWVKQSPGKNLEWIGLITPYNNDTSYNQKFKGKATLTVDKSSSTAYMELLSLTSEDSAVYYCARWVYGNYVGWFAYWGQGTLVTVSA
VL: DIVMTQSHKFMSTSVGDRVNITCKASQDVSTSVTWYQQKPGQSPKLLIYSTSYRYTGVPDRFTGSGSGTDFTFTISSVQAEDLAVYYCQQHYSTPWTFGGGTKLEIKR
notes: as for B1
B4: 鼠单抗mAb004 (antibody, mouse IgG1, kappa)
heavy: QVQLQQPGAELVKPGTSVKLSCKASGYNFTSYWINWVKLRPGQGLEWIGDIYPGNYSPNYNEKFLNKATLTTDTASSTAYMQLNNLASEDSAVYYCASGYFDYWGQGTTLIVSAAKTTPPSVYPLAPGSAAQTNSMVTLGCLVKGYFPEPVTVTWNSGSLSSGVHTFPAVLQSDLYTLSSSVTVPSSTWPSETVTCNVAHPASSTKVDKKIVPRDCGCKPCICTVPEVSSVFIFPPKPKDVLTITLTPKVTCVVVDISKDDPEVQFSWFVDDVEVHTAQTQPREEQFNSTFRSVSELPIMHQDWLNGKEFKCRVNSAAFPAPIEKTISKTKGRPKAPQVYTIPPPKEQMAKDKVSLTCMITDFFPEDITVEWQWNGQPAENYKNTQPIMDTDGSYFVYSKLNVQKSNWEAGNTFTCSVLHEGLHNHHTEKSLSHSPGK
light: DIVMTQSPSSLSVSAGEEVIMSCKSSQSLLNSGTQKNYLAWYQQKPGQPPKLLIYGTSTRESGVPDRFTGSGSGTDFTLTINNVQAEDLAIYYCQNDHSYPYTFGGGTKLEIKRADAAPTVSIFPPSSEQLTSGGASVVCFLNNFYPKDINVKWKIDGSERQNGVLNSWTDQDSKDSTYSMSSTLTLTKDEYERHNSYTCEATHKTSTSPIVKSFNRNEC
notes: as for B1

What follows are binders tested against T1, 重组人PVRIG-人IgG1 Fc融合蛋白 (human) (assay: ELISA, coated PVRIG-Fc 0.5 ug/ml, anti-mouse IgG-HRP).
T1 construct: The Fc gene was added at the C-terminus of the gene for the PVRIG extracellular domain; no linker or signal peptide is stated; also called 人PVRIG重组蛋白
T1 sequence (chain, as listed by the source limits assumed): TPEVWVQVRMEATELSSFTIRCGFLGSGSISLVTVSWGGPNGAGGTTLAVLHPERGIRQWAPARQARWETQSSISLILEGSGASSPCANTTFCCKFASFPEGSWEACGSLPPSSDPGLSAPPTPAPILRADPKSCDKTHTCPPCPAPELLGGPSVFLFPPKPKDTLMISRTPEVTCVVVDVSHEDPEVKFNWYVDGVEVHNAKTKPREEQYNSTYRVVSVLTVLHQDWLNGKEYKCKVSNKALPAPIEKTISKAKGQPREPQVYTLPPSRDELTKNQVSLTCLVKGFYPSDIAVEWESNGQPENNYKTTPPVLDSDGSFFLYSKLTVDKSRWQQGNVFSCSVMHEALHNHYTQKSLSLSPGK

Binding result, binds:
B1, B2, B3, B4
